For assay [1], the target named is T1, human Factor XIa, activated form of coagulation factor XI (human, UniProt P03951 19-387; P03951 388-625).
T1 construct: also called FXIa; human FXIa
As to the kind of experiment: ELISA. (In general: ELISA stands for enzyme-linked immunosorbent assay.)

The target of assay [2] is T1, human Factor XIa, activated form of …. Description: cell-based or functional assay.
Another assay deals with human Thrombin (human, UniProt P00734 328-363; P00734 364-622). Description: ELISA, antibody dilution series. As to the method: (§1) In this example, the binding ability of coagulation factors PK, PKa, FXII, FXIIa, FIX, FIXa, FX, FXa, FVIIa, and Thrombin to antibodies at a series of diluted concentrations was analyzed using ELISA.
The target of the next assay is human FIXa (human, UniProt P00740 47-191; P00740 227-461). As to the kind of experiment: ELISA, antibody dilution series. As to the method:
as §1

A further assay concerns the target human FIX (human, UniProt P00740 47-461). Description: ELISA, antibody dilution series. The method, then:
as §1

The target in another assay is human FXa (human, UniProt P00742 41-179; P00742 235-488, limits assumed). As to the kind of experiment: ELISA, antibody dilution series. The method, then:
as §1

The next assay addresses human PK (human, UniProt P03952 20-638). As to the kind of experiment: ELISA, antibody dilution series. As to the method:
as §1

Another assay has as its target T2, human FXII (human, UniProt P00748 20-615).
T2 sequence (looked up): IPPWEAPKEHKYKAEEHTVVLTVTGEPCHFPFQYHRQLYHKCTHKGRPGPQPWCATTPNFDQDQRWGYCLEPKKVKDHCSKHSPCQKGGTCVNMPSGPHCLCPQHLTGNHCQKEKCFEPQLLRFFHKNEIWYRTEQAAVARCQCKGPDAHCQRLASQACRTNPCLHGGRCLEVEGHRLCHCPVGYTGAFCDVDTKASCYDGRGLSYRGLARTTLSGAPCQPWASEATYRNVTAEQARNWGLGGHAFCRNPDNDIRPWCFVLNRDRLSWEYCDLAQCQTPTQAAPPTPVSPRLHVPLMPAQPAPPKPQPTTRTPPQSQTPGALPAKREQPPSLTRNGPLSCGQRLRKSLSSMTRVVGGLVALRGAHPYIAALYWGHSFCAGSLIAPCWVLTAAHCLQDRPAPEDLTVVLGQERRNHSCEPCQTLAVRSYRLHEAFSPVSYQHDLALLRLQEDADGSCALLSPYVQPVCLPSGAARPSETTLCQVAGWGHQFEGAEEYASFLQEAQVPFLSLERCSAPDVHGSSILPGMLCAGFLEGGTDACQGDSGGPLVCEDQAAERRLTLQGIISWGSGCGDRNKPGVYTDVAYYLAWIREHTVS
Description: ELISA, antibody dilution series. The method, then: as §1

A further assay deals with T3, human FVIIa (human, UniProt P08709 61-212; P08709 213-466).
T3 sequence (looked up) 1: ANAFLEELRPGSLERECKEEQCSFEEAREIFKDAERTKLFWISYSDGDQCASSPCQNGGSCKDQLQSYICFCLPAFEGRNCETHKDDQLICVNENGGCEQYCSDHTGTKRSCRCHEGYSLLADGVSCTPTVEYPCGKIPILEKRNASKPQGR
T3 sequence (looked up) 2: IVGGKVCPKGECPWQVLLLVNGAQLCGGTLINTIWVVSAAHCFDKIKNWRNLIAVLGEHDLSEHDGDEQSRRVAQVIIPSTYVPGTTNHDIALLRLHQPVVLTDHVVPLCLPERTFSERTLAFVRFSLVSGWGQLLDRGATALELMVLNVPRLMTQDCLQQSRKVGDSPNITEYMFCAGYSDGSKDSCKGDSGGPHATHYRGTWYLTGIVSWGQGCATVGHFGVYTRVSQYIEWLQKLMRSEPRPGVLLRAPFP
As to the kind of experiment: ELISA, antibody dilution series. As to the method:
as §1

The target of a further assay is human FX (human, UniProt P00742 41-488). Description: ELISA, antibody dilution series. The method, then:
as §1

For assay [3], the target named is T1, human Factor XIa, activated form of …. Description: SPR, BIAcore T200, antibody captured on Protein A chip, FXIa as analyte, 1:1 Langmuir fit. As to the method:
(2) Sample testing conditions: The binding characteristics of FXIa and antibodies were preliminarily determined and evaluated in a manual mode. 10 nM was determined as the maximum analytical concentration of FXIa. […] During the sample analysis, the flow rate was set to be 30 μL/min, the binding time was 120 s, and the dissociation time was 600 s.
(3) Regeneration conditions: With reference to other experiments, preliminary determination and evaluation were performed in a manual mode. […] During the regeneration, the flow rate was set to be 30 μL/min, and the regeneration time was 30 s.
(4) Kinetic parameter determination: The experiment was carried out in a multi-cycle mode, in which the response signal took the analysis time as the horizontal coordinate and the response value as the vertical coordinate. The obtained data were fitted by BIAcore T200 analysis software, during which a 1:1 Langmuir binding model was used as a fitting model, so as to determine the kinetic constants such as an association rate constant, a dissociation rate constant, and an association-dissociation constant.
(In SPR one partner is held on a chip, and binding of the other changes the refractive index at the surface.)

B1: anti-human FXIa full-length human monoclonal antibody 14624 (antibody, IgG1, V domains shown)
VH: QVQLVQSGAEVKKPGASVKVSCKVSGYTLTELSMHWVRQAPGKGLEWMGGFDPEDGETIYAQKFQGRVTMTEDTSTDTAYMELSSLRSEDTAVYYCATDRPVRGVIPYYYYYGMDVWGQGTLVTVSS
VL: QSALTQPPSASGTPGQTVTISCSGSRSNIGSRPVNWYQHLPGTAPKLLIYIDHQRPSGVPDRFSGSKSGTSASLAISGLQSDDEADYYCAAWDDSLDAYVFGTGTKVTVL
notes: Full-length IgG1 made in CHO cells
What is called EC50 is the concentration that produces a half-maximal response. High values mean lower potency in that assay, low ones higher potency in that assay. In general, Kd refers to the free concentration of one partner at which half of the binding sites on the other are occupied at equilibrium, for simple one-to-one binding. Broadly, the koff is a measure of how fast the partners let go of each other. High values mean fast dissociation, low ones slow dissociation. What is called kon is a measure of how fast the partners come together. High values mean faster complex formation, low ones slower complex formation. In [1], B1 registered an EC50 of 0.056 nM. Besides, in assay [2], the “IC50 (nM), inhibition of human FXIa hydrolysis of S-2366” value was found to be 47.3 nM. The binding result in the assay with human Thrombin, in the assay with human FIXa, with human FIX, with human FXa, with human PK and with human FXII was “no binding” each time. The binding result with human FVIIa and with human FX was “no binding” throughout. Further, binding in [3] was characterised by a dissociation constant (Kd) of 0.0231 nM. Further, the koff in assay [3] came out at 0.00245 s⁻¹. The same molecule came in with a kon in assay [3] of 1.06e+08 M⁻¹ s⁻¹.

Values taken from US20220153872A1 (MAB LEGEND BIOTECH, published 2022).
